# According to patent publication US6416758:
# Target: VEGF:sFlk-1 complex (VEGF associated with its receptor) (human; mouse) (UniProt P15692)
# Test: capture ELISA: antibody coated on wells, VEGF complexed with biotinylated sFlk-1 titrated, peroxidase-avidin; concentration giving 50% maximal binding; extrapolated value (*)
# VEGF:sFlk-1 complex (VEGF associated with its receptor) (human; mouse), sequence (P15692 other isoform, or with tags, fused parts or gaps limits assumed, chain 1 of 2): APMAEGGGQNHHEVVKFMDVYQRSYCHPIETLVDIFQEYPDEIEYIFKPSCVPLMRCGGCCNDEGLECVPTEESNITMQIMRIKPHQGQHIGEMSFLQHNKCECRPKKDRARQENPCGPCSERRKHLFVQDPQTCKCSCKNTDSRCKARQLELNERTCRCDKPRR
# VEGF:sFlk-1 complex (VEGF associated with its receptor) (human; mouse), sequence (P35918 20-762 limits assumed, chain 2 of 2, further chain): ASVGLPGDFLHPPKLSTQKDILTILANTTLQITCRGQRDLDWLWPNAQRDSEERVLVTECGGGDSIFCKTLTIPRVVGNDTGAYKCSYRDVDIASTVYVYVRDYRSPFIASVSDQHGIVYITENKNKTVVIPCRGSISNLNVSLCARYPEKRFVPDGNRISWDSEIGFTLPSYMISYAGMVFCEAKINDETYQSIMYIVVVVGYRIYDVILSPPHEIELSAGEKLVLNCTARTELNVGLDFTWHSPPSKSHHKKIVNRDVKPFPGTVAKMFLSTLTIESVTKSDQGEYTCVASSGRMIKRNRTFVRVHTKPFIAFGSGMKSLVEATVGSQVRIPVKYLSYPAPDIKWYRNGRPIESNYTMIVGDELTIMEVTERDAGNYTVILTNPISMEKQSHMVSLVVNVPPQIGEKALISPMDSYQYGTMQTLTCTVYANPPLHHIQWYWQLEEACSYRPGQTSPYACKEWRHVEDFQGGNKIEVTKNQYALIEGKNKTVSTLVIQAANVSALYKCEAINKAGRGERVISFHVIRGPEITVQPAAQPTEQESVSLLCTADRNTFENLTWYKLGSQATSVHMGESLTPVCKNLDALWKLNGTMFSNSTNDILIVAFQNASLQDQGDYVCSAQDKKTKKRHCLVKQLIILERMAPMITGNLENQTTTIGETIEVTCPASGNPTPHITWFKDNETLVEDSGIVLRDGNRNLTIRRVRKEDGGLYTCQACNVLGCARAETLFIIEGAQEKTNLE
# A4.6.1 (mouse anti-human VEGF monoclonal antibody, Genentech), sequence (VH): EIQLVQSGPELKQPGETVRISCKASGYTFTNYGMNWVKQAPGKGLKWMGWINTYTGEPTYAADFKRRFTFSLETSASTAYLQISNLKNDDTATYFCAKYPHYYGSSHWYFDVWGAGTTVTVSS
# A4.6.1 (mouse anti-human VEGF monoclonal antibody, Genentech), sequence (VL): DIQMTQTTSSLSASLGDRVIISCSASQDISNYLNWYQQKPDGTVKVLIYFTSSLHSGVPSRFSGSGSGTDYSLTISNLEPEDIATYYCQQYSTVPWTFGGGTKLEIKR
substance,measurement,value
"A4.6.1 (mouse anti-human VEGF monoclonal antibody, Genentech)",EC50,500 nM
